According to paper PMC6085627:
One block for each binder: values may come before it.

Key:
[1] = target: human TLR4 (human), O00206; assay: SPR; Biacore T200; rhTLR4 amine-coupled on CM5 (~800 RU); HMGB1 isoforms injected at 30 μL/min for 60 s, 25 °C, dissociation 1-2 min; HBS-EP pH 7.4; 1:1 binding supposed; apparent KD; conditions: remark: other sources report otherwise
[2] = target: human TLR4 (human), O00206; assay: SPR; Biacore T200; TLR4 amine-coupled on CM5 (800 RU); GST-A-box (310-10,000 nM), GST-B-box (1 and 5 μM), A-box or GST injected at 30 μL/min for 60 s, 25 °C, dissociation 2 min; HBS-EP pH 7.4; 1:1 binding supposed; apparent KD
[3] = target: Human TLR4/MD-2 complex (human), O00206; assay: SPR; Biacore T200; TLR4/MD-2 amine-coupled on CM5 (1100 RU); GST-A-box, GST-B-box (150-5000 nM), A-box or GST injected at 30 μL/min for 60 s, 25 °C, dissociation 1 min; HBS-EP pH 7.4; GST-A-box: association and dissociation fitted separately to a 1:1 model; GST-B-box: steady-state affinity model; apparent KD
[4] = target: Human TLR4 (rhTLR4) (human), O00206; assay: SPR; TLR4/MD-2 complex or TLR4 coated on a CM5 chip; A-box protein injected as analyte (0-5 µM on TLR4/MD-2, 0-10 µM on TLR4); Biacore T200, HBS-EP buffer pH 7.4
Human TLR4 (rhTLR4) (human), O00206, sequence (O00206 24-631): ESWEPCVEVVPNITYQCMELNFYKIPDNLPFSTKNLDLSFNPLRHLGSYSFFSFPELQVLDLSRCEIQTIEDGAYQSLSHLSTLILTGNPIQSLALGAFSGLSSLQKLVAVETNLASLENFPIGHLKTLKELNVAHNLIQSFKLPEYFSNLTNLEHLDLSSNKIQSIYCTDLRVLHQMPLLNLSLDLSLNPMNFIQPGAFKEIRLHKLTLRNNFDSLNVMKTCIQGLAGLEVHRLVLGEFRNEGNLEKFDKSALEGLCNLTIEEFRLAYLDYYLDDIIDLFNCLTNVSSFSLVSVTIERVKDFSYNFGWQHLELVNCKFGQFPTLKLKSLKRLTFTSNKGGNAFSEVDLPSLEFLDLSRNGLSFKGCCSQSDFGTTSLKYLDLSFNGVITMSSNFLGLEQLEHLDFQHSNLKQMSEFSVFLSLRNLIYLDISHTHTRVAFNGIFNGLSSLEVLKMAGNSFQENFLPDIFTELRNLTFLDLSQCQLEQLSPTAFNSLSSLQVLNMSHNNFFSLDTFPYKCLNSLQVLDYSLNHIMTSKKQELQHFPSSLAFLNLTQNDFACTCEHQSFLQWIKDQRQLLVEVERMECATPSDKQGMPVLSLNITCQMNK

[5] = target: Human TLR4/MD-2 complex (human), O00206; assay: as above
Target sequence in this assay (O00206 24-631, chain 1 of 2, one chain of several): as the sequence (O00206 24-631) above

Recombinant GST-A-box = assay: SPR; Biacore T200; GST-A-box (750 RU) or GST-B-box (1000 RU) amine-coupled on CM5; MD-2 injected (17-500 nM) at 30 μL/min for 60 s, 25 °C, dissociation 1 min; HBS-EP pH 7.4; steady-state affinity model; apparent KD
Recombinant GST-B-box = assay: as above

human TLR4 (human), O00206, sequence (O00206 24-631): as above

- Kd [1]: 640 nM
- fold slower dissociation rate than reduced HMGB1 [1]: 2 fold
- koff [1]: 0.128 s⁻¹
B1: disulfide HMGB1 (High Mobility Group Box 1), P63159 1-215 (natural protein)
chain: MGKGDPKKPRGKMSSYAFFVQTCREEHKKKHPDASVNFSEFSKKCSERWKTMSAKEKGKFEDMAKADKARYEREMKTYIPPKGETKKKFKDPNAPKRPPSAFFLFCSEYRPKIKGEHPGLSIGDVAKKLGEMWNNTAADDKQPYEKKAAKLKEKYEKDIAAYRAKGKPDAAKKGVVKAEKSKKKKEEEDDEEDEEDEEEEEEEEDEDEEEDDDDE
modifications: here or on the partner: disulfide bond between C23 and C45

- Kd [1]: 650 nM
B2: DTT reduced HMGB1, P63159 1-215 (natural protein)
chain: B1 chain
modifications: here or on the partner: cysteines reduced with DTT (no C23-C45 disulfide)

- Kd [2]: 590 nM
- koff [2]: 0.013 s⁻¹
- kon [2]: 22000 M⁻¹ s⁻¹
- Kd [3]: 1210 nM
- koff [3]: 0.037 s⁻¹
- kon [3]: 30800 M⁻¹ s⁻¹
B3: Recombinant GST-A-box (domain or fragment)
chain: PRGKMSSYAFFVQTCREEHKKKHPDASVNFSEFSKKCSERWKTMSAKEKGKFEDMAKADKARYEREMKTYI
modifications: not checked

- Kd [4]: 1030 nM
- Kd [5]: 1550 nM
B4: Recombinant A-box without GST tag (HMGB1 A-box domain) (domain or fragment)
chain: B3 chain
modifications: not checked

- Kd (Recombinant GST-A-box): 3250 nM
B5: human MD-2, Q9Y6Y9 19-160 (natural protein)
chain: QKQYWVCNSSDASISYTYCDKMQYPISINVNPCIELKRSKGLLHIFYIPRRDLKQLYFNLYITVNTMNLPKRKEVICRGSDDDYSFCRALKGETVNTTISFSFKGIKFSKGKYKCVVEAISGSPEEMLFCLEFVILHQPNSN

- Kd (Recombinant GST-B-box): 1410 nM
B6: human MD-2 (natural protein)
chain: B5 chain
